Measured values reported in doi:10.1101/2022.12.29.522231 (bioRxiv, 2022).

Assays:
[1] = biological target: catalytic domain of MMP-14 residues 110-300 (human, UniProt P50281 110-300); experiment: enzyme inhibition assay
[2] = biological target: catalytic domain of MMP-3 (WT), activated (UniProt P08254 100-272); experiment: enzyme inhibition assay
catalytic domain of MMP-3 (WT), activated, sequence (P08254 100-272): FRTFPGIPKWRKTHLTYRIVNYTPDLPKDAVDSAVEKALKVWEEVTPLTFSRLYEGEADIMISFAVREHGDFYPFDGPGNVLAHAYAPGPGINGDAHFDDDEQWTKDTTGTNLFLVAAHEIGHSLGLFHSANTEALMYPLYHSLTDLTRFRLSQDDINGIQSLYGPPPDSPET

B1: WT N-TIMP2 (N-terminal domain of tissue inhibitor of metalloproteinases-2), purified (domain or fragment, human, UniProt P16035 27-153, looked up)
chain: CSCSPVHPQQAFCNADVVIRAKAVSEKEVDSGNDIYGNPIKRIQYEIKQIKMFKGPEKDIEFIYTAPSSAVCGVSLDVGGKKEYLIAGKAEGDGKMHITLCDFIVPWDTLSTTQKKSLNHRYQMGCE
B1 showed a Ki [1] of 0.53 ± 0.1 nM and a Ki [2] of 5.9 ± 0.7 nM.
